In patent publication US20240327534A1 (HARPOON THERAPEUTICS, published 2024):
Positions count from the first letter of the chain named.

T1: human BCMA on BCMA expressing cell lines (human, UniProt Q02223 1-184)
T1 sequence: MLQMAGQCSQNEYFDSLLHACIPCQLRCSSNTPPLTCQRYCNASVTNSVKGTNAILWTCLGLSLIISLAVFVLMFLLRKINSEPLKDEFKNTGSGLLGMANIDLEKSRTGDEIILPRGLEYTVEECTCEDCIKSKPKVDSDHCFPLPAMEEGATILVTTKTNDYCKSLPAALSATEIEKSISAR

T2: human BCMA protein (human, UniProt Q02223 1-54, limits assumed)
T2 sequence: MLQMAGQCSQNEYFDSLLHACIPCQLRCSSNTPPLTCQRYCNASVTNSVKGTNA

B1: BCMA targeting trispecific protein 01B02 (other)
VHH: EVQLVESGGGLVQPGRSLTLSCAASTNITSISPMGWYRQAPGKQRELVAAISGFSTLYADSVKGRFTISRDNAKNSIYLQMNSLRPEDTALYYCNEVPWGDYHPRNVYWGQGTQVTVSS
notes: trispecific; not shown: anti-albumin domain, anti-CD3 domain and the linkers of the trispecific; the C-terminal His6 that follows them is left out
B2: BCMA targeting trispecific protein 01C10 (other, not shown: large carriers; small tags and cut ends)
VHH: B1 VHH with T29S, S52H, E96K, D101Y
notes: trispecific
B3: BCMA targeting trispecific protein 01F09 (other)
VHH: B1 VHH with T29S, S52H, F54H, E96K, D101R
notes: as for B1
B4: BCMA targeting trispecific protein 01F03 (other)
VHH: B1 VHH with T29F, I31E, S52H, F54N, E96K, D101T
notes: trispecific; not shown: the C-terminal 6xHis tag follows those domains and is left out
B5: BCMA targeting trispecific protein 01C06 (other, not shown: large carriers; small tags and cut ends)
VHH: B1 VHH with T29F, S52H, F54D, E96K, D101K
notes: trispecific
B6: BCMA targeting trispecific protein 01C02 (other)
VHH: B1 VHH with T29E, S52H, F54N, E96K, D101R
notes: trispecific; not shown: The C-terminal 6xHis tag is left out because it follows these missing domains
B7: BCMA targeting trispecific protein 01E10 (other)
VHH: B1 VHH with T29E, S52H, F54K, E96K, N106R
notes: as for B4
B8: BCMA targeting trispecific protein 01B03 (other, not shown: large carriers; small tags and cut ends)
VHH: B1 VHH with T29F, I31K, S52H, F54K, E96K, Y108V
notes: trispecific
B9: BCMA targeting trispecific protein 01D02 (other)
VHH: B1 VHH with T29V, S52H, F54K, E96K, R105G
notes: trispecific; not shown: the C-terminal His6 follows those missing domains and is left out
B10: BCMA targeting trispecific protein 01E08 (other, not shown: large carriers; small tags and cut ends)
VHH: B1 VHH with T29F, I31Q, S52H, F54D, E96K, R105G, Y108C
notes: trispecific
B11: BCMA targeting trispecific protein 01C05 (other, not shown: large carriers; small tags and cut ends)
VHH: B1 VHH with T29F, I31S, S52H, S55K, L91R, E96K, R105G
notes: trispecific
B12: BCMA targeting trispecific protein 01B06 (other)
VHH: B1 VHH with T29F, S52H, F54D, E96K, D101E
notes: trispecific; not shown: the C-terminal 6xHis tag follows those missing domains and is left out
B13: BCMA targeting trispecific protein 01D03 (other)
VHH: B1 VHH with T29F, I31N, S52H, F54D, E96K, Y108R
notes: trispecific; not shown: anti-albumin domain, anti-CD3 domain and the linkers of the trispecific (TriTAC) format
B14: BCMA targeting trispecific protein 01B12 (other, not shown: large carriers; small tags and cut ends)
VHH: B1 VHH with T29F, I31T, S52H, S55Q, E96K, Y108V
notes: trispecific
B15: BCMA targeting trispecific protein 01E07 (other)
VHH: B1 VHH with T29P, S52H, F54Q, E96K, Y108Q
notes: trispecific; not shown: anti-albumin domain, anti-CD3 domain and the linkers of the trispecific (TriTAC) chain; the C-terminal 6xHis tag follows these missing domains and is left out
B16: BCMA targeting trispecific protein 01F08 (other)
VHH: B1 VHH with I31V, S52H, F54P, E96K, R105T
notes: as for B4
B17: BCMA targeting trispecific protein 01D06 (other)
VHH: B1 VHH with T29F, I31R, S52H, F54D, E96K, Y108T
notes: as for B13
B18: BCMA targeting trispecific protein 01C07 (other, not shown: large carriers; small tags and cut ends)
VHH: B1 VHH with T29F, S32Y, S52H, L57Y, E96K, D101S
notes: trispecific
B19: BCMA targeting trispecific protein 01B05 (other, not shown: large carriers; small tags and cut ends)
VHH: B1 VHH with S52H, S55E, E96K, R105G
notes: trispecific
B20: BCMA targeting trispecific protein 01D10 (other)
VHH: B1 VHH with T29F, I31A, S52H, F54S, E96K, D101R
notes: as for B1
B21: BCMA targeting trispecific protein 01F05 (other)
VHH: B1 VHH with T29F, I31S, S52H, L57W, E96K, D101R
notes: as for B6
B22: BCMA targeting trispecific protein 01E03 (other, not shown: large carriers; small tags and cut ends)
VHH: B1 VHH with S52H, F54D, E96K, R105G
notes: trispecific
B23: BCMA targeting trispecific protein 01C04 (other)
VHH: B1 VHH with T29P, S52H, F54D, E96K
notes: as for B15
B24: BCMA targeting trispecific protein 01D07 (other, not shown: large carriers; small tags and cut ends)
VHH: B1 VHH with T29F, I31A, S52H, F54S, E96K, Y108N
notes: trispecific
B25: BCMA targeting trispecific protein 01E04 (other, not shown: large carriers; small tags and cut ends)
VHH: B1 VHH with T29A, S52H, F54T, E96K, R105G
notes: trispecific
B26: BCMA targeting trispecific protein 01F04 (other)
VHH: B1 VHH with T29D, S52H, S55Q, E96K, R105G
notes: as for B9
B27: BCMA targeting trispecific protein 01B04 (other)
VHH: B1 VHH with I28D, T29F, S52H, F54K, E96K, Y108K
notes: as for B15
B28: BCMA targeting trispecific protein 01F02 (other)
VHH: B1 VHH with T29F, I31H, S52H, F54T, E96K, D101R
notes: as for B1
B29: BCMA targeting trispecific protein 01F10 (other)
VHH: B1 VHH with T26S, T29F, S52H, F54E, E96K, Y108T
notes: as for B12
B30: BCMA targeting trispecific protein 01C01 (other, not shown: large carriers; small tags and cut ends)
VHH: B1 VHH with T29V, S52H, F54H, E96K, R105G
notes: trispecific
B31: BCMA targeting trispecific protein 01B08 (other, not shown: large carriers; small tags and cut ends)
VHH: B1 VHH with T29E, S52H, F54S, E96K, D101R
notes: trispecific
B32: BCMA targeting trispecific protein 01B07 (other, not shown: large carriers; small tags and cut ends)
VHH: B1 VHH with T29F, I31R, S52H, F54N, E96K, D101I
notes: trispecific
B33: BCMA targeting trispecific protein 01E06 (other, not shown: large carriers; small tags and cut ends)
VHH: B1 VHH with T29F, I31L, S52H, F54D, E96K
notes: trispecific
B34: BCMA targeting trispecific protein 01C08 (other, not shown: large carriers; small tags and cut ends)
VHH: B1 VHH with T29F, I31N, S52H, F54G, E96K, Y108H
notes: trispecific
B35: BCMA targeting trispecific protein 01E05 (other)
VHH: B1 VHH with T29F, I31R, S52H, F54T, E96K, D101K
notes: as for B12
B36: BCMA targeting trispecific protein 01B09 (other, not shown: large carriers; small tags and cut ends)
VHH: B1 VHH with T26S, T29F, S52H, F54S, E96K, R105G
notes: trispecific
B37: BCMA targeting trispecific protein 01D04 (other)
VHH: B1 VHH with S52H, F54V, E96K, Y108Q
notes: as for B15
B38: BCMA targeting trispecific protein 01D05 (other)
VHH: B1 VHH with T29F, I31D, S52H, F54T, E96K
notes: as for B15

Target: T1, human BCMA on BCMA expressing cell lines
Experiment: cell-based or functional assay

| TDCC EC50 (EJM cells) [nM] | Binder |
| --- | --- |
| 0.359 | B1 |
| 0.208 | B2 |
| 0.945 | B3 |
| 0.0764 | B4 |
| 0.0251 | B5 |
| 0.0373 | B6 |
| 0.0623 | B7 |
| 0.0964 | B8 |
| 0.00225 | B9 |
| 0.0015 | B10 |
| 0.00307 | B11 |
| 0.00697 | B12 |
| 0.0149 | B13 |
| 0.0273 | B14 |
| 0.0192 | B15 |
| 0.0712 | B16 |
| 0.0135 | B17 |
| 0.0833 | B18 |
| 0.00301 | B19 |

| TDCC EC50 (EJM cells) [nM] | Binder |
| --- | --- |
| 0.453 | B20 |
| 0.0372 | B21 |
| 0.00298 | B22 |
| 0.0175 | B23 |
| 0.0196 | B24 |
| 0.00267 | B25 |
| 0.00221 | B26 |
| 0.0161 | B27 |
| 0.225 | B28 |
| 0.00744 | B29 |
| 0.00133 | B30 |
| 0.0876 | B31 |
| 0.174 | B32 |
| 0.00377 | B33 |
| 0.0457 | B34 |
| 0.0108 | B35 |
| 0.00527 | B36 |
| 0.016 | B37 |
| 0.0166 | B38 |

Target: T2, human BCMA protein
Experiment: affinity to human BCMA protein, method not stated

| Kd [nM] | Binder |
| --- | --- |
| 18.8 | B1 |
| 46.4 | B2 |
| 52.8 | B3 |
| 15 | B4 |
| 18.8 | B5 |
| 20 | B6 |
| 18.5 | B7 |
| 26.2 | B8 |
| 7.35 | B9 |
| 5.56 | B10 |
| 6.09 | B11 |
| 9.1 | B12 |
| 20.9 | B13 |
| 20.7 | B14 |
| 19.9 | B15 |
| 21.4 | B16 |
| 14.9 | B17 |
| 19.8 | B18 |
| 6.52 | B19 |

| Kd [nM] | Binder |
| --- | --- |
| 53.9 | B20 |
| 16.7 | B21 |
| 6.36 | B22 |
| 21.6 | B23 |
| 19.3 | B24 |
| 7.29 | B25 |
| 6.55 | B26 |
| 18.6 | B27 |
| 41.3 | B28 |
| 14.4 | B29 |
| 6.52 | B30 |
| 25.6 | B31 |
| 43.9 | B32 |
| 8.91 | B33 |
| 28.3 | B34 |
| 11.7 | B35 |
| 11.2 | B36 |
| 18.9 | B37 |
| 17.8 | B38 |
